Source: patent US20170002075A1 (AbbVie / Abbott, published 2017)

Tests used:
[1] = biological target: T1, E. coli RAGE Construct #6, 6His-(Thr)-[RAGE (130-336)] (human, UniProt Q15109 130-336); experiment: ELISA: RAGE 130-336 (E. coli, D#1478) coated, mAb titrated, anti-mouse HRP conjugate, TMB
T1 construct: Expressed in E. coli with an N-terminal 6His-(Thr) tag, which is part of the entry; also called RAGE protein #6
Procedure: (§1) Antigens (purified construct #1-7 proteins) were diluted into Coating Buffer [100 mM NaHCO₃, pH 8.2] to 1 μg/ml, and 100 μl of the resulting solution was then aliquoted into a 96-well Nunc Immuno Plate (Maxi-Sorb Surface, flat bottom, catalog #439454). The plate was sealed with sealing film and incubated at 4° C. overnight. The next day, the plate wells were each washed 3 times with 150 μL PBST buffer [Sigma PBS+0.05% Tween 20]. Then 300 ul of blocking solution (3% NFDM in PBST) was added to each well. The plate was incubated for 2 hours at room temperature and shaking at 100 rpm. After the incubation step, each well was again washed three times with 150 uL PBST. […] The plate was then sealed with sealing film and incubated for 2 hours at room temperature and shaking at 100 rpm. Next the antibody solution was drained out of the wells, and each well then washed three times with 200 ul PBST. To each well then 200 ul of a 1:5000 dilution (in PBST/1% NFDM) of conjugated secondary antibody [Donkey anti-mouse HRPO conjugate, Jackson Immuno Research, Catalog #715-035-150] was added. The plate was covered and allowed to incubate for 1 hour at room temperature while shaking at 100 rpm. Following this incubation, the solution was removed from the wells and each well was washed three times with 200 ul PBST. To each well 100 μL of HRPO substrate [3,3′,5′,5′-Tetramethylbenzidine Liquid Substrate (TMB), Supersensitive for ELISA, Sigma Catalog #T4444] solution was added and the plate incubated at room temperature for 10 minutes. Finally, 50 μL of 2M H₂SO₄ was added to each well to stop the reaction and the A₅₄₀ₙₘ of each well was measured using a microtiter plate reader.

[2] = biological target: T2, E. coli RAGE Construct #2, 6His-(Thr)-[RAGE (24-129)] (human); experiment: ELISA: RAGE 24-129 (E. coli, D#1474) coated, mAb titrated, anti-mouse HRP conjugate, TMB
T2 construct: Expressed in E. coli with an N-terminal 6His-(Thr) tag, which is part of the entry; also called RAGE protein #2
T2 chain: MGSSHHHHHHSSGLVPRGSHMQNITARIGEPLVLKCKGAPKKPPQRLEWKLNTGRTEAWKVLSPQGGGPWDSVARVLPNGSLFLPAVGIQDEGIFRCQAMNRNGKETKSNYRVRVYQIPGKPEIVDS
Procedure: as §1

[3] = biological target: T3, E. coli RAGE Construct #5, 6His-(Thr)-[RAGE (130-234)] (human); experiment: ELISA: RAGE 130-234 (E. coli, D#1477) coated, mAb titrated, anti-mouse HRP conjugate, TMB
T3 construct: Expressed in E. coli with an N-terminal 6His-(Thr) tag, which is part of the entry; also called RAGE protein #5
T3 chain: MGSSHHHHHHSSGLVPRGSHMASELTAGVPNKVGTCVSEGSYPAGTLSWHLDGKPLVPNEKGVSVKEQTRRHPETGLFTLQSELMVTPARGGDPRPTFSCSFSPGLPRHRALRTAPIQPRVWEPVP
Procedure: as §1

mouse RAGE (Mu-RAGE) = mouse RAGE (Mu-RAGE) (mouse, UniProt Q62151 23-340, limits assumed); experiment: Biacore SPR (Table 7, column Mouse-RAGE); paragraph 283: 'Table 7 shows that 4E5 did not bind to mouse RAGE (Mu-RAGE)'
[4] = biological target: T4, hRAGE (1-331) / human sRAGE 1-331, V#400 (human, UniProt Q15109 23-331); experiment: Biacore 2000 SPR, mAb captured via anti-mouse Fc, RAGE injected 20-0.31 nM, HBS-EP+ buffer, 1:1 fit
T4 construct: also called sRAGE [RAGE (1-331)]; RAGE (antigen of the Biacore runs)
Procedure: The assay format for mAb affinity analysis was Fc-based capture via immobilized anti-Fc antibodies. A standard amine coupling protocol was employed to immobilize Fc-specific IgG via primary amines to the carboxy-methyl (CM) dextran surface of CM5 sensorchips (Biacore). […] Briefly, the CM-dextran surfaces were activated by freshly prepared 1:1 50 mM N-hydroxysuccinimide (NHS):200 mM 3-(N,N-dimethylamino) propyl-N-ethylcarbodiimide (EDC). Then the anti-Fc IgG capture reagent (20 ug/ml in 10 mM sodium acetate, pH4.5) was applied to the surface followed by deactivation of the surface and blocking of the residual reactive sites with 1M ethanolamine (pH 8.5).
Each experimental cycle consisted of the following steps: 1) anti-RAGE mAbs were captured in flowcells 2, 3 or 4 to a level of 50-200 RU (depending on the antigen). All measurements were referenced against flowcell 1 which had no captured anti-RAGE mAb. […] 3) the anti-Fc capture surface was regenerated with low pH glycine.
Briefly, the data were double referenced by first, subtracting the signal from the reference cell and second, by subtracting the signal from buffer-only injections.

[5] = biological target: T5, E. coli RAGE Construct #4, 6His-(Thr)-[RAGE (24-336)] (human, UniProt Q15109 24-336); experiment: ELISA: RAGE 24-336 (E. coli, D#1476) coated, mAb titrated, anti-mouse HRP conjugate, TMB
T5 construct: Expressed in E. coli with an N-terminal 6His-(Thr) tag, which is part of the entry; also called RAGE protein #4
Procedure: as §1

T1 sequence (Q15109 other isoform, or with tags, fused parts or gaps limits assumed): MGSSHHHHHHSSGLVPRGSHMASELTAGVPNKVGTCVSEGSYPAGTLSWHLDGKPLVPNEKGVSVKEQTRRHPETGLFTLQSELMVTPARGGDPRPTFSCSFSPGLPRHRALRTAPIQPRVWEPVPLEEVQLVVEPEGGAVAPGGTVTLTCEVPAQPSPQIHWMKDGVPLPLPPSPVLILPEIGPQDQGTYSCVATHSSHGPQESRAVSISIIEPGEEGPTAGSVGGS
T4 sequence (Q15109 23-331): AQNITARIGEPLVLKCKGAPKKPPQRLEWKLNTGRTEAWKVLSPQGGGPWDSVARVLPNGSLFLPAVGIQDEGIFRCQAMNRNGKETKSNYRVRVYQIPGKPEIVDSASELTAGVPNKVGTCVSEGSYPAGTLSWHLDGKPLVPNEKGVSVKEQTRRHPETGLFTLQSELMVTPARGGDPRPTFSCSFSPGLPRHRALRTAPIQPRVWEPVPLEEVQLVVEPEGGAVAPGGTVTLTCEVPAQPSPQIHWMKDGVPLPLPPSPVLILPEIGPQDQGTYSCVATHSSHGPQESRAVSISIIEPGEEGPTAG
Chain of mouse RAGE (Mu-RAGE) (Q62151 23-340 limits assumed): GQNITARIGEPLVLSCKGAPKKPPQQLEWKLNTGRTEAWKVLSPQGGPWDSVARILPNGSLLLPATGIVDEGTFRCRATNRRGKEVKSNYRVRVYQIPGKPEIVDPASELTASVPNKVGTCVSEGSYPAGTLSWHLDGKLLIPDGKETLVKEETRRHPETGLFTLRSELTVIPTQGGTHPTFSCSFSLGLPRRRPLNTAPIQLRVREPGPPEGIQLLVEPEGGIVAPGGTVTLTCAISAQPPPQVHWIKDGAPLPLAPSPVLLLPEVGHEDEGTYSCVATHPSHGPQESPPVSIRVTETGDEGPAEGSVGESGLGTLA

Binder	EC50 (read off the curve) [1] [nM]	binding result [2]	binding result [3]	binding result (mouse RAGE (Mu-RAGE))	Kd [4] [nM]	EC50 (read off the curve) [5] [nM]	binding result [1]	binding result [5]
anti-human RAGE monoclonal antibody 4E5 (murine, hybridoma-derived) (antibody, V domains shown, also called mAb4E5; ML37-4E5) VH: QVQLQQSGAELVRPGTSVKVSCKASGYAFNNYLIEWIKQRPGQGLEWIGVINPGSGGTNHNEKFKVKATLTADKSSSTAYIQLSSLTSDDSAVYFCARSAGTARARFAYWGQGTLVTVSA VL: DIQMTQSPSSLSASLGERVSLTCRASQDIGSSLNWLQQEPDGTIKRLIYATSSLDSGVPKRFSGSRSGSDYSLTISSLESEDFVDYYCLQYASFPFTFGSGTKLEIKR	~0.5	no binding	no binding	no binding	2.2	~0.2	–	–
anti-human RAGE monoclonal antibody 7F9 (murine, hybridoma-derived) (antibody, V domains shown, also called mAb7F9; MAb 7F9) VH: EEKLEESGGGLVQLGGSMKISCVASGFTLSNYWMDWVRQSPEKGLEWIAEIRLKSNYYSTHYAESVKGRFSISRDDSKGSVSLQMDNLTAEDTGIYFCARNAYWYFDVWGTGTTVTVSS VL: DIVMTQSHKFMSTSVGDRVSATCKASQDVGTSVAWYQQKLGQSPKLLIYWTSTRHTGVPDRFTGSGSGTDFTLTISNVQSEDLADYFCQQYNNYPLTFGDGTKLELKR	–	no binding	no binding	–	0.11	–	no binding	no binding
anti-human RAGE monoclonal antibody 11E6 (murine, hybridoma-derived) (antibody, V domains shown, also called mAb11E6; ML37-11E6) VH: QIQLVQSGPELKKPGETVKISCKASGYTFTNFGMNWVKQAPGKGLKWMGYINTNTGESIYSEEFKGRFAFSLETSASTAYLQINNLKNEDTATYFCARSRMVTAYGMDYWGQGTSVTVSS VL: DIVMTQSQKFMSTSVGDRVSITCKASQNVGTAVAWYQQRPGQSPKLLIFSASNRYTGVPDRFTGSGSGTDFTLTLSNMQPEDLADYFCQQYSSYPLTFGVGTKLELKR	~0.6	no binding	no binding	–	0.29	~0.2	–	–
